Values quoted from earlier work in PMC3138048.

Target: Lys199 (UniProt position 223, AKQRLKCASLQ)
Assay: chemical modification

Substance: Human serum albumin (HSA) (Homo sapiens)
- pKa: 7.9
